doi:10.1101/2022.07.18.499583

Target: NSP1 (SARS-CoV-2, UniProt P0DTD1 1-180)
Experiment: BLI

AACCAACUUUCGAUCUCUUGUAGAUCUGUUCU (structured_RNA) [SL2 (unmodified)] showed a Kd of 300 ± 54 nM.
